B1: His-SUN2(335–717), luminal domain of human SUN2 (predicted coiled-coil regions and SUN domain) (domain or fragment, UniProt Q9UH99 335-717, looked up)
chain: LVSRREAALKEDFRRETAARIQEELSALRAEHQQDSEDLFKKIVRASQESEARIQQLKSEWQSMTQESFQESSVKELRRLEDQLAGLQQELAALALKQSSVAEEVGLLPQQIQAVRDDVESQFPAWISQFLARGGGGRVGLLQREEMQAQLRELESKILTHVAEMQGKSAREAAASLSLTLQKEGVIGVTEEQVHHIVKQALQRYSEDRIGLADYALESGGASVISTRCSETYETKTALLSLFGIPLWYHSQSPRVILQPDVHPGNCWAFQGPQGFAVVRLSARIRPTAVTLEHVPKALSPNSTISSAPKDFAIFGFDEDLQQEGTLLGKFTYDQDGEPIQTFHFQAPTMATYQVVELRILTNWGHPEYTCIYRFRVHGEPAH
B2: KASH1 peptide (Nesprin-1, residues 8769–8797) co-expressed with SUN2(522–717) (peptide)
peptide: not shown
B3: SUN2(522–717), minimal SUN domain of human SUN2 used for crystallography (domain or fragment, UniProt Q9UH99 522-717, looked up)
chain: GVTEEQVHHIVKQALQRYSEDRIGLADYALESGGASVISTRCSETYETKTALLSLFGIPLWYHSQSPRVILQPDVHPGNCWAFQGPQGFAVVRLSARIRPTAVTLEHVPKALSPNSTISSAPKDFAIFGFDEDLQQEGTLLGKFTYDQDGEPIQTFHFQAPTMATYQVVELRILTNWGHPEYTCIYRFRVHGEPAH
B4: KASH2 peptide (Nesprin-2, residues 6857–6885) co-expressed with SUN2(522–717) (peptide)
peptide: not shown

Key:
AUC = target: the molecule itself; assay: AUC
[1] = target: B3; assay: crystal structure
crystal structure = target: the molecule itself; assay: crystal structure
[2] = target: B3; assay: crystal structure; remark: listed apart in the source

Binder: B1
stoichiometry N (AUC): 3

Binder: B2
binding result [1]: binds

Binder: B3
stoichiometry N (crystal structure): 3

Binder: B4
stoichiometry N [2]: 3 KASH2 peptides per SUN2 trimer

Source: PMC3383001 (Cell, 2012)
